Experiment: yeast display, Sf9 membrane polyspecificity reagent, FACS + sequencing; frameworks hold sequencing errors
Outline: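 After 36–48 hours of galactose induction, yeast (Saccharomyces cerevisiae BJ5465) displaying a synthetic nanobody library were stained at 4 °C for 1 hour with 10% biotinylated, detergent-solubilized Sf9 membrane reagent. Streptavidin microbeads enriched the stained cells before FACS sorting into low and high (top ~1%) gates on anti-HA and streptavidin fluorescence. Each clone's polyreactivity label reflects its gate of origin.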

| Sequence | polyreactivity (PSR sort gate) |
| --- | --- |
| QVQLVESGGGLVQAGGSLRLSCAASGTIFLVYAMGWYRQAPGKERELVAAITFSGGDTYADSVKGRFTISRDNAKNTVYLQMNSLKPEDTAVYYCNAPWPFYGSVVGQDFDYWGQGTQVTVSS | low polyreactivity |
| QVQLVESGGGLVQAGGSLRLSCAASGITFGRNTMGWYRQPPGKERELVAAIDSGGNTYADSVKGRFTISRDNAKNTVYLQMNSLKPEDTAVYYCAVDGGEFSSYGYWVQGTQVTVSS | low polyreactivity |
| QVQLVESGGGLVQAGGSLRLSCAASGSIFKEYAMGWYRQAPGKERELVAAITGSGGSTFYADSVKGRFTISRDNAKNTVYLQMNSLIPEDTAVYYCNARRPAKSRYRHDYWGQGTQVTVSS | high polyreactivity |
| QVHLVESVGGLVQAGGSLRLSCAASGSIFDVYTMGCYRQAPGKERELVAAINTGGGSKYYADSVKGRFTISRDNAKNTVYLQMNSLKPEDTAVYYCAASVYHYGPLYYWGQGTQVTVSS | low polyreactivity |
| QVQLVDTGRGLVQAGGSLRLSCAPSGRTFGYNAMGWYRQAPGKERELVAAINWSGASTYYADSVKWRFTISRDNAKNTVYLQMKSLKPEDTAVYYCAADYSYIYGFDYWGQGTQVTVST | low polyreactivity |
| QVQLVESGGGLVQAGGSLRLSCADSGLTFYRYAMGWYRQAPGKERELVAAIRVSGNTYYADSVKGRFTISRDNAKNTVYLQMNSLKPEDTAVYYCAAKPYYFYGMDYWGQGTQVTVSS | high polyreactivity |
| QVQLVESGGGLVQAGGSLRLSSGAYGITFWTYAMGWYRQAHGKERELVAAISNGGSTSYADSVKGRFTISRDNAKNTVYLQINILKPEDTAVYYCASDWATHRPWYWCVYYWGQGTQVTVSS | low polyreactivity |
| QVQLVESGGGLVQAGGSLRLSCAASGSTFYSYAMGWYSQAPGKERELVARIRWSGYTYSADSVKGRFTISRDNAKNTVYLQMNSLKPEDTAVSYCAAKRGFHIADYWGQGTQVTVSS | high polyreactivity |
| QVQLVESGGGLVQAGGSLRLSCAASGRTFYGYALGWYRQAPGKERELVAAISDDASTYYADSVKGRFTISRDNAKNTVYLQMNSLKPEDTAVYYCAAEPEWPYGRFDYWGQGTQVTVSS | high polyreactivity |
| QVQIVESGGGLVQAGGSLRLSCAASVIIFSKYGMGWYRQAPGKERELVAAISSSGGTTYYADSVKGRFTISRDNAKNTVYLQMNSLKPEDTAVYYCAATGRRRTYSEYEYWGQGTQVTVSS | high polyreactivity |
| QVQLVESGGGLVQAGGRLRLTCAASGSIFWSNAMGLYRQAPGKERELVAAITSGGSTYYADSVKGRFTISRDNAKNTVYLQMNSLKPEDTAVYYCAARPEVRHQYRRYDYWGQGTQVTVSS | low polyreactivity |
| QVQLVESGGGLVQAGGSLRLSCAASGRIFSYYAMGWYRQAPGKERELVAAITSGGRTNYADSVKGRFTISRDNAKNTVYLQMNSLNPEDTAVYYCAAIFGYGSTWCRWGKDDYWGQGTQVTVSS | high polyreactivity |
| QVQLQESGGGLVQAGGSLRLSCAASGSIYVSVTMGWYRQAPGKERELVASIGRGSTTNHADSVKGRFTISRDNAKNIVYLLMNSLKPEDTAVYYCAALESYGKYHGYWGEGTQVTVSS | low polyreactivity |
| QVQLVESGGGLVQAVGSIRLSCAASGSIFRKYSIRWNRQAPGKDRELVAAISWSGGGTYYADSVKGRFTISRDNAKNTVYLQMNSLKPEDTAVYYCAADPYWDSKGVYWGQGTQVTVSS | low polyreactivity |
| QVQLVESAGCLVQAGGSLRLSCAASGRTFAVYAMGWSRPAPGKQREMVAAITLGASRSYYADSVKGRFTISRDNAKNTVYLQMNRLKPEDSAVYYWNDVGRLNVDSYLNDYWGKGTQVTVSS | low polyreactivity |
| QVQLVESGGGLVQAGGSLRLSCAASGSIFGANTMGWYRQAPGKERELVAGITSGARTYYADSVKGRFTISRDNAKNTVYLQMNSLKPEDTAVYYCAAQYAWRRYGYWGQGTQVTVSS | high polyreactivity |
| QVQLVESGGGLVQAGGSLRLSCAASGSNFTYYAMGWYRQAPGKEREFVAAINRSGGSTYYADSVKGRFTISRDNAKNTVYLQMNSLKPEDTAVYYCAARRGSGALRYNYWGQGTQVTVSS | high polyreactivity |

From the nanobody polyreactivity screen of Harvey et al. (2022)
